Literature values, collected in PMC10339233.
pKd: −log10 of the molar value.

Target: thrombomodulin EGF-like domains 4-6 (Homo sapiens) (UniProt P07204)
Experiment: SPR

Q: With thrombin (from UniProt P00734) as the substance, how does the pKd read?
A: Its pKd is 8.40.
